According to patent publication US20210347867A1:

Columns and labels:
[1] = target: amyloid peptide Aβ1-42 (UniProt P05067); assay: ELISA, plate coated with Aβ1-42 (target by legend paragraph 23), antibody titrated, signal as % Max
[2] = target: amyloid peptide AβpE3-42 (UniProt P05067); assay: ELISA, plate coated with AβpE3-42, antibody titrated, signal as % Max
Sequence of amyloid peptide AβpE3-42 (P05067 674-713 limits assumed): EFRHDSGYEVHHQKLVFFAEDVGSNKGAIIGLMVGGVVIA

Sequence of amyloid peptide Aβ1-42 (P05067 672-713 limits assumed): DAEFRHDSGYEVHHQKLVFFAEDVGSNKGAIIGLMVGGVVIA

- EC50 [1]: 0.22 µg/mL
- EC50 [2]: 0.15 µg/mL
Substance: Solineuzumab (antibody)
